Laboratory results reported in patent US20260098102A1 (NATIONAL UNIVERSITY CORPORATION KOBE UNIVERSITY, published 2026).
Like-named read-outs stand apart in the source and are kept apart here.

T1: monkey SIRPA protein (cynomolgus monkey, UniProt P78324 31-504 (human entry))
T1 construct: Expressed on 293α cells from pcDNA3.2 V5-DEST or pFLAG V5-DEST vectors; also called cynomolgus monkey SIRPA; cSIRPA
T1 chain: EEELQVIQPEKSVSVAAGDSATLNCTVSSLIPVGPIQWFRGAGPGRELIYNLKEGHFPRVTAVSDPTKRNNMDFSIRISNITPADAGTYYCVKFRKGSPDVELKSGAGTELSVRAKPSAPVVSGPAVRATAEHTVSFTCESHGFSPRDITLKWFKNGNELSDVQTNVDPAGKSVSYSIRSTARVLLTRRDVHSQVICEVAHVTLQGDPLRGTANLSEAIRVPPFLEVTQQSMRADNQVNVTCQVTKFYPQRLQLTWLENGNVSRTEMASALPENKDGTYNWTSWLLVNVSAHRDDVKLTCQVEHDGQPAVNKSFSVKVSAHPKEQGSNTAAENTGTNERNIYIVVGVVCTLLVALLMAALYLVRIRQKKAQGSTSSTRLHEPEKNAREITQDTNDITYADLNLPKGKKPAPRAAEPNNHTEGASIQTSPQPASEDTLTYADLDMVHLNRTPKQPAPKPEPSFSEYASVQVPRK

B1: human chimeric anti-SIRPA antibody cF44 (antibody, human IgG4 S228P, kappa, F234A L235A, V domains shown)
VH: EVQLVESGGGLVQPGRSLKLSCAASGFTFSNYYMAWVRQAPTKGLEWVTYITTGGGSTYFRDSVKGRFTISRDNAESTLYLQMDSLRSEDTATYYCTAANYGGSYFDYWGQGVMVTVSS
VL: DVQMTQSPSNLAASPGESVSINCKASKSISKYLAWYQQKPGKANKLLIYSGSTLQSGTPSRFSGSGSGTDFTLTIRNLEPEDFGLYYCQQHNEYPPTFGAGTKLELKR
notes: Human IgG4proFALA heavy chain, human kappa light chain; also called cF44 (IgG4pf); human chimeric antibody F44
B2: human chimeric anti-SIRPA antibody cF63 (antibody, human IgG4 S228P, lambda, F234A L235A, V domains shown)
VH: QVQLKESGPGLVQPSETLSLTCTVSGFSLASYSLSWVRQPSGKGPEWMGRMYYDGDTAYNSALKSRLSISRDTSKNQVFLKMNSLQTDDTGTYYCTRDRSMFGTDYPHWYFDFWGPGTMVTVSS
VL: QFTLTQPKSVSGALRSTITIPCERSSGDIGDSYVSWYQRHLGRPPINVIYADDQRPSEVSDRFSGSIDSSSNSASLTITNLQMDDEADYFCQSYDSKIDIFGGGTKLTVLG
notes: Human IgG4proFALA heavy chain, human lambda light chain; also called cF63 (IgG4pf); human chimeric antibody F63

Assays:
human SIRPA_V1 protein [1] = biological target: T2, human SIRPA_V1 protein (human, UniProt P78324 31-504); assay: blocking cell-based ELISA: peroxidase-labeled CD47-Fc (10,000 ng/mL) on 293α cells expressing SIRPA_V1; y axis = CD47-Fc signal in % of no antibody [i]
T2 construct: Expressed on 293α cells from pcDNA3.2 V5-DEST or pFLAG V5-DEST (FLAG-tagged) vectors; also called human SIRPA Variant 1; hSIRPA V1
Experimental: (§1) After the culture supernatant of the human SIRPA and monkey SIRPA expression vector-introduced 293α cells prepared in Examples 5)-1 and 5)-2, respectively, was removed, 50 μL per well of cD13 (IgG2 and IgG4pf), cF44 (four different constant regions IgG1, IgG2, IgG4p, and IgG4pf), and cF63 (IgG2 and IgG4pf) diluted with 5% FBS-containing PBS to final concentrations of 0 to 10,000 ng/mL were added to each of pcDNA3.2 V5-DEST-SIRPA_V1, pcDNA3.2 V5-DEST-monkey SIRPA, and pcDNA3.2 V5-DEST-introduced 293α cells, immediately followed by addition of 50 μL per well of peroxidase-labeled CD47-Fc prepared in 5% FBS-containing PBS at a final concentration of 10,000 ng/ml, and the mixture was allowed to stand at 4° C. for one hour. Thereafter, the SIRPA-CD47 binding inhibitory activity was evaluated in the same manner as in 1)-6-3.

human SIRPA_V1 protein [2] = biological target: T2, human SIRPA_V1 protein; assay: as above; remark: listed apart in the source
Experimental: as §1
Target sequence in this assay (P78324 31-504 limits assumed): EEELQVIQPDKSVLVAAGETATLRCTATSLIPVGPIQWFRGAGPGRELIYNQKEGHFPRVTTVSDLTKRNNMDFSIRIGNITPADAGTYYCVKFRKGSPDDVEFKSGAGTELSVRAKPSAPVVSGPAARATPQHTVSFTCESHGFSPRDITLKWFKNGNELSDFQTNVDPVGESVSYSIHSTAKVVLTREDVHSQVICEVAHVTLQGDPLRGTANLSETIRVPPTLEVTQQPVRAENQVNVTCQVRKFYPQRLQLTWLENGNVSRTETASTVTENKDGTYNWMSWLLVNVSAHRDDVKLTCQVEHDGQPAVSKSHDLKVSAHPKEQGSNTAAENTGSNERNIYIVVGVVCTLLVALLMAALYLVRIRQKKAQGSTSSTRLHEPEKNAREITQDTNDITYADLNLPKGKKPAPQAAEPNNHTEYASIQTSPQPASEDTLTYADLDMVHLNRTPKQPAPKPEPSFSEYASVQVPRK

human SIRPA_V2 protein [3] = biological target: T3, human SIRPA_V2 protein (human, UniProt P78324 31-504); assay: blocking cell-based ELISA: peroxidase-labeled CD47-Fc (10,000 ng/mL) on 293α cells expressing SIRPA_V2; y axis = CD47-Fc signal in % of no antibody [ii]
T3 construct: Expressed on 293α cells from pcDNA3.2 V5-DEST or pFLAG V5-DEST (FLAG-tagged) vectors; also called human SIRPA Variant 2; ECD variant (full-length, amino acids 1 to 504)
Target sequence in this assay (P78324 other isoform, or with tags, fused parts or gaps limits assumed): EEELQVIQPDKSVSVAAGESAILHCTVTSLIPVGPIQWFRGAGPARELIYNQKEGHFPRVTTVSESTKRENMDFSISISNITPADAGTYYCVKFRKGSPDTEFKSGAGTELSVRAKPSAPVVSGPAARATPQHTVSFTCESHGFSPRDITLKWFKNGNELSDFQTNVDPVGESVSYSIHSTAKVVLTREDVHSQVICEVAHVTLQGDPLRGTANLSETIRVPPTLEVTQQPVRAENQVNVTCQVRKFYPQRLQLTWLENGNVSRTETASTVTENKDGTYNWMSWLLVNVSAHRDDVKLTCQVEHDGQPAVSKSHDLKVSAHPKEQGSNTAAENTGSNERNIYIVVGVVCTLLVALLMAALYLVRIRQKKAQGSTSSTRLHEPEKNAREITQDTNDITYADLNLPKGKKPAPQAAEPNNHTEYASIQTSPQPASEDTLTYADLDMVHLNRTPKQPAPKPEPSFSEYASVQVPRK

human SIRPA_V2 protein [4] = biological target: T3, human SIRPA_V2 protein; assay: cell-based ELISA on 293α cells expressing FLAG-tagged SIRPA_V2; Abs 490 normalized to FLAG tag
Experimental: (§2) The 293α cells [described in Example 1)-6] were prepared in a 10% FBS-containing DMEM medium to 5×10⁵ cells/mL. pFLAG V5-DEST-SIRPA_V1, pFLAG V5-DEST-SIRPA_V2, or pFLAG V5-DEST was introduced into the cells using Lipofectamine LTX (Invitrogen), followed by addition of 100 μL per well to a 96-well plate (Corning Incorporated), and cells were cultured overnight in the 10% FBS-containing DMEM medium at 37° C. under a 5% CO₂ condition. The obtained introduced cells were used for cell-based ELISA in a state that they adhered to each other. After the culture supernatant was removed, 50 μL per well of the cD13 (IgG2 and IgG4pf), cF44 (IgG1, IgG2, IgG4p, and IgG4pf), and cF63 (IgG2 and IgG4pf) antibodies prepared in Examples 3 and 4 were added to each of pFLAG V5-DEST-SIRPA_V1, pFLAG V5-DEST-SIRPA_V2, or pFLAG V5-DEST-introduced cells at final concentrations of 0 to 10,000 ng/mL, and the mixture was allowed to stand at 4° C. for one hour. Further, 50 μL per well of anti-FLAG M2 antibody (SIGMA) diluted with 5% FBS-containing PBS to a final concentration of 10,000 ng/mL was added to a well for detecting expression of each SIRPA construct, and the mixture was allowed to stand at 4° C. for one hour. The cells in the well were washed once with 5% FBS-containing PBS, followed by addition of Peroxidase AffiniPure F(ab′)₂ Fragment Goat Anti-Human IgG, Fcγ Fragment Specific (Jackson ImmunoResearch) diluted 1000-fold with 5% FBS-containing PBS, and the mixture was allowed to stand at 4° C. for one hour. The cells in the well were washed five times with 5% FBS-containing PBS, followed by addition of 100 μL per well of an OPD coloration solution [o-phenylenediamine dihydrochloride (Wako Pure Chemical Industries, Ltd.) and H₂O₂ were dissolved in an OPD solution (0.05 M trisodium citrate, 0.1 M disodium hydrogen phosphate dodecahydrate, pH 4.5) at 0.4 mg/mL and 0.6% (v/v), respectively]. A coloration reaction was performed with stirring occasionally, 100 μL per well of 1 M HCl was added to terminate the coloration reaction, and then absorbance at 490 nm was measured with a plate reader ARVO (PerkinElmer Inc.). Binding of the human chimeric anti-human SIRPA antibodies to each construct was standardized by expression of the FLAG tag.

human SIRPA_V2 protein [5] = biological target: T3, human SIRPA_V2 protein; assay: blocking cell-based ELISA: peroxidase-labeled CD47-Fc (10,000 ng/mL) on 293α cells expressing SIRPA_V2; y axis = CD47-Fc signal in % of no antibody [ii]; remark: listed apart in the source
monkey SIRPA protein = biological target: T1, monkey SIRPA protein; assay: cell-based ELISA on 293α cells expressing FLAG-tagged monkey SIRPA; Abs 490 normalized to FLAG tag
SIRPA_V1_IgV = biological target: T4, SIRPA_V1_IgV (human, UniProt P78324 31-149); assay: SPR Biacore T200, antibody captured, SIRPA_V1_IgV as analyte, 1:1 model
T4 construct: Secreted recombinant protein from FreeStyle 293F cells
T4 sequence (P78324 other isoform, or with tags, fused parts or gaps limits assumed): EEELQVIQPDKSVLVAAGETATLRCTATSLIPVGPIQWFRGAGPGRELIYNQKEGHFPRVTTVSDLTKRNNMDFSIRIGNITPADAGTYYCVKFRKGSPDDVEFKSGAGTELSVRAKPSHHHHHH
Experimental: The dissociation constants of the cD13, cF44, and cF63 prepared in Example 4 against the human SIRPA_V1_IgV prepared in Example 1 were determined by a capture method comprising capturing a human chimeric antibody as a ligand and measuring an antigen as an analyte, using Biacore T200 (GE Healthcare Bioscience Corp.). HBS-EP+ (GE Healthcare Bioscience Corp.) was used as a running buffer, and CM5 (GE Healthcare Bioscience Corp.) was used as a sensor chip. In an amount of 1 μg/mL human chimeric antibody was added onto a chip at a rate of 10 μL/min for 60 seconds, a serially diluted solution of human SIRPA protein as an antigen (0.5 to 8 μg/mL) was added at a flow rate of 30 μL/min for 120 seconds, and the dissociation phase continued to be monitored for 600 seconds. As a regenerant, 3 M magnesium chloride (GE Healthcare Bioscience Corp.) was added at a flow rate of 20 μL/min for 30 seconds. For data analysis, the binding rate constant (ka), dissociation rate constant (kd), and dissociation constant (KD; KD=kd/ka) were calculated using a 1:1 binding model.

human SIRPA_V1 protein [6] = biological target: T2, human SIRPA_V1 protein; assay: cell-based ELISA on 293α cells expressing FLAG-tagged SIRPA_V1; Abs 490 normalized to FLAG tag
Experimental: as §2
Target sequence in this assay (P78324 31-504 limits assumed): as the sequence (P78324 31-504 limits assumed) above

Binder	IC50 (read off the curve) (human SIRPA_V1 protein [1]) [µg/mL]	IC50 (read off the curve) (human SIRPA_V1 protein [2]) [µg/mL]	IC50 (read off the curve) (human SIRPA_V2 protein [3]) [µg/mL]	EC50 (read off the curve) (human SIRPA_V2 protein [4]) [µg/mL]	IC50 (read off the curve) (human SIRPA_V2 protein [5]) [µg/mL]	EC50 (read off the curve) (monkey SIRPA protein) [µg/mL]	Kd (SIRPA_V1_IgV) [pM]	EC50 (read off the curve) (human SIRPA_V1 protein [6]) [µg/mL]
B1	~0.6	~0.6	~0.4	~0.05	~0.4	~0.08	1720	~0.05
B2	~0.1	–	–	–	~0.2	~0.09	166	~0.05
